B1: OR4K15 (parent)
chain: GUUAACGGUCAUAGGCCAUGGAAACUAGGAGCACCAUUUCGCUGCCAGUGAAGAAAUGAACAAAGAAAAUCUGGGCCAGGCAGGCAUCAAAAGAAAUAGUCUUGCGCUCAACCAGAAAGUCUGUAAUCAUUUUAAGGGUA

The text below walks through data of the RNAGym collection of RNA variant scans (doi:10.7554/elife.90254).

Variants of B1 are the subject of this data set. In words: self-cleavage, relative activity (ratio to wild type); higher = more cleavage; in vitro, sequencing; the parent is a self-cleaving ribozyme.
On to GUUAACGGUCAUAGGCCAUGGAAACUAGGAGCACCAUUUCGCUGCCAGUGAGGAAAUGAACAAAGAAUAUCUGGGCCAGGCAGGCAUCAAAAGAAAUAGUCUUGCGCUCAACCAGAAAGUCUGUAAUCAUUUUAAGGGUA [A52G A68U], for which the self-cleavage was found to be 1.66.
With GUUAACGGUCAUAGGCCAUGGAAACUAGGAGCACCAUUUCGCUGCCAGUGAAGAAAUGAGCAAAGAAAAUCUGGGCCAGGCAGGCAUCAAAAGAAGUAGUCUUGCGCUCAACCAGAAAGUCUGUAAUCAUUUUAAGGGUA [A60G A96G], the self-cleavage amounted to 1.47.
On to GUUAACGGUCAUAGGCCAUGGAAACUAGGAGCACCAUUUCGCUGCCAGUGAAGAAAUGAACAAAGGAAAUCAGGGCCAGGCAGGCAUCAAAAGAAAUAGUCUUGCGCUCAACCAGAAAGUCUGUAAUCAUUUUAAGGGUA [A66G U72A], for which the self-cleavage is 0.32.
In the case of GUAAACGGUCAUAGGCCAUGGAAACUAGGAGCACCAUUUCGCUGCCAGUGAAGAAAUGAACAAAGAAAAUCUGGGCCAGGCAGGCAUCAAAAGAAAUAGUCUUGCGCUCAACCAGAAAGUCUGUAAACAUUUUAAGGGUA [U3A U127A] it was 1.84; in that of GUUAACGGUCAUAGGCCAUGGAAACUAGGAGCACCAUUUCGCUGCCAGUGAAGAAAUGAUCAAAGAAAAUCUGGGCCAGGCAGGCAUCAAAAGAAAUAGUCUUGCGCUCAACCAGAAAGUCUGUAAUCAUUUUGAGGGUA [A60U A134G], 1.84.
In the case of GUUAACGGUCAUAGGCCAUGGUAACUAGGAGCACCAUUUCGCUGCCAGUGAAGAAAUGAACAAAGAAAAUCUGGGCCAGGCAGGCAUCAAAAGAAAUAGUCUUGUGCUCAACCAGAAAGUCUGUAAUCAUUUUAAGGGUA [A22U C105U] it was 0.18; in that of GUUAACGGUCAUAGGCCAUGGAAACUAGGAGCACCAUUUCGCUGCCAGUGAAGAAAUGAACAAAGAAAAUCUGGGCCAGGCAGGCAUCAAAAGAAAUAGUCCUGCGCUCAACCUGAAAGUCUGUAAUCAUUUUAAGGGUA [U102C A114U], 0.11.
As to GGUAACGGUCAUAGGCCAUGGAAACUAGGAGCACCAUUUCGCUGCCAGUGAAGAAAUGAACACAGAAAAUCUGGGCCAGGCAGGCAUCAAAAGAAAUAGUCUUGCGCUCAACCAGAAAGUCUGUAAUCAUUUUAAGGGUA [U2G A63C], the self-cleavage is 0.7.
On to GUUAACGGUCAUAGGCCAUGGAAACUAGGAGCACCAUUUCGCUGCCAGUGAAGAAAUGAACAAAGUAAAUCUGGGCCAGGCAGGCAUCAAAAGAAAUAGUCCUGCGCUCAACCAGAAAGUCUGUAAUCAUUUUAAGGGUA [A66U U102C], for which the self-cleavage is 1.8.
For the variant GUUAACGGUCAUAGGCCAUGGAAACUAGGAGCACCAUUUCGCUGCCAGUGAAGAAAUGAACAAAGAAAAUCUGGGCCAGGCAGGCAUCAAAAGAAAUAGUCUUGCGCUCAUCCAGAAGGUCUGUAAUCAUUUUAAGGGUA [A111U A118G], the self-cleavage is 0.05.
GUUAACGGUCAUAGGCCAUGGAAACUAGGAGCACCAUUCCGCUGCCAGUGAAGAAAUGAACAAAGAAAAUCUGGGCCAGGCAGGCAUCAAAAGAAAUAGUCUUGCGCUCAACCGGAAAGUCUGUAAUCAUUUUAAGGGUA [U39C A114G]: the self-cleavage was 0.72.
Under GUUAACGGUCAUUGGCCAUGGAAACUAGGAGCCCCAUUUCGCUGCCAGUGAAGAAAUGAACAAAGAAAAUCUGGGCCAGGCAGGCAUCAAAAGAAAUAGUCUUGCGCUCAACCAGAAAGUCUGUAAUCAUUUUAAGGGUA [A13U A33C] stands 2.21; under GUUAACGGUCAUAGGCCAUGGAAACUAGCAGCACCACUUCGCUGCCAGUGAAGAAAUGAACAAAGAAAAUCUGGGCCAGGCAGGCAUCAAAAGAAAUAGUCUUGCGCUCAACCAGAAAGUCUGUAAUCAUUUUAAGGGUA [G29C U37C], 1.25; under GUUAACGGUCAUAGGCCAUGGAAACUAGGAGCACCAUUUCGCUGCCAGUGAAGAAAUGAACAAAGAAAAUCUGGGCCAGGCGGGCAUCAAAAGAAAUAGUCUUGCGCUCAACCGGAAAGUCUGUAAUCAUUUUAAGGGUA [A82G A114G], 0.08.
Consider GUUAACGGUCAUAGGCCAUGGAAACUAGGAGCACCAUUUCGCUGCCAGUGAAGAAAUGAACAAAGAAAAUCUGGGCCAGGCAGGCAUCAAAAGAAAUAGUCUUGCGCCCAACCUGAAAGUCUGUAAUCAUUUUAAGGGUA [U108C A114U], for which the self-cleavage came to 0.01.
As to GUUAACGGUCAUAGGCCAUGGAAACUAGGAGCACCAUUUCGCUGCCAGUGAAGAAAUGAACAAAGAAAAUCUGGGCCAGACAGGCAUCAAAAGAAAUAGUCUUGCGCUCAACCAGAAAGUCUGUAAUCGUUUUAAGGGUA [G80A A129G], the self-cleavage was 0.09.
On to GUUAACGGUCAUAGGCCAUGGAAACUAGGAGCACCAUUUCGCUGCCAGUUAAGAAAUGAACAAAGAAAAUCUGGGCCAGGCAGGCAUCAAAAGAAAUAGUCUUGCGCUCAACCAGAAAGUAUGUAAUCAUUUUAAGGGUA [G50U C121A], for which the self-cleavage worked out at 2.92.
Consider GUUAACGGUCAUAGGCCAUGGAAACUAGGAGCACCAUUUCGCUGCCAGUGAAGAAAUGAACAAAGAAAAUCAGGGCCAGGCAGGCAUCAAAAGAAAUAGUCUUGCGCUCAACCAGAAAGUCUGUAAUCAUUUUUAGGGUA [U72A A134U], for which the self-cleavage worked out at 0.27.
In the case of GUUAACGGUCAUAGGCCAUGGAAACAAGGAGCACCAUUUCGCUGCCAGUGAAGAAAUGAACAAAGAAAAUCUGGGCCUGGCAGGCAUCAAAAGAAAUAGUCUUGCGCUCAACCAGAAAGUCUGUAAUCAUUUUAAGGGUA [U26A A78U] it was 0.43.
Under GUUAACGGUCAUAGGCCAUGGAAACUAGGAGCACCAUUUCGCUGCCAGUGAAGAAAUGAACAAAGAAAAUCUGGGCCGGGCAGGCAUCAAAAGAAAUAGUCUUGCGCUCAACCAGAAAGUCGGUAAUCAUUUUAAGGGUA [A78G U122G] stands 0.15; under GUUAACGGCCAUAGGCCAUGGAAACUAGGAGCACCAUUUCGCUGCCAGUGAAGAAAUGAACAAAGAAAAUCUGGGCCAGGCAGGCAUCAGAAGAAAUAGUCUUGCGCUCAACCAGAAAGUCUGUAAUCAUUUUAAGGGUA [U9C A90G], 1.04; under GUUAACGGUCAUAGGCCAUGGAACCUAGGAGCACCAUUUCGCUGCCAGUGAAGAAAAGAACAAAGAAAAUCUGGGCCAGGCAGGCAUCAAAAGAAAUAGUCUUGCGCUCAACCAGAAAGUCUGUAAUCAUUUUAAGGGUA [A24C U57A], 1.21.
In the case of GUUAACGGUCAUAGGCCAUGGAAACUAGGAGCACCAUUUCGCUGCCAGUGAAGAAAUGAACAAAGAAAAUCUGGGCCGGGCAGGCAUCAAAAGAAAUAGUCUUGCGCUCAACCAGAAAGUCUGUAAUCCUUUUAAGGGUA [A78G A129C] it was 0.11.
For GUUAACGGUCAUAGGCCAUGGAAACUAGGAGCACCAUUUCGCUGCCAGUUAAGAAAUGAACAAAGAAAAUCUGGGCCAGGCAGGCAUCAAAAGAAGUAGUCUUGCGCUCAACCAGAAAGUCUGUAAUCAUUUUAAGGGUA [G50U A96G], the self-cleavage was determined as 2.5.
Consider GUUAACGGUCAUAGGCCAUGGAAACUAGGAGCACCAUUUCGCUGCCAGUGAAGAAAAGAACAAAGAAAAUCUGGGCCAGGCAGGCAUCAAAAGAGAUAGUCUUGCGCUCAACCAGAAAGUCUGUAAUCAUUUUAAGGGUA [U57A A95G], for which the self-cleavage was 2.11.
Under GUUAACGGUCAUAGGCCAUGGAAACUAGGAGCACCAUUUCGCUGCCAGUGAAGAAAUGAACAAAGAAAAUCUGGGCCAGGCAGGCGUCAAAAGAAAUAGUCUUGCGCUCAACCAGAAAGUCUGUAAACAUUUUAAGGGUA [A86G U127A] stands 1.76; under GUUAACGGUCAUAGGCCAUGGAAACUAGGAGCACCAUUUCGCUGCCAGUGAAGAAAUGAACAACGAAAAUCUGGGCCAGGCAGGCAUCAAAAGAGAUAGUCUUGCGCUCAACCAGAAAGUCUGUAAUCAUUUUAAGGGUA [A64C A95G], 2.58.
Turning to GUUAACGGUCAUAGGCCAUGGAAACUAGGAGCACCAUUUCGCUGCCAGUGAAGAAAUGAACAAAGAAAAUCUGGGCCAGGCAGGCAUCAGAAGAAAUAGUCUUGCGCUCAACCAGAAAGUCUGUAAUCAUUUUAAGCGUA [A90G G137C], the self-cleavage was determined as 1.19.
Regarding GUUAACGGUCAUAGGCCAUGGAAACUAAGAGCACCAUUUCGCUGCCAGUGAAGAAAUGAACAAAGAAAAUCUGGGCCAGGCAGGCAUCAAAAGAAAUAGUCUUGCGCUCAACCUGAAAGUCUGUAAUCAUUUUAAGGGUA [G28A A114U], the self-cleavage was found to be 0.18.
GUUAACGGUCAUAGGCCAUGGAAACUAGGAGCACCAUUUCGCUGCCAGCGAAGAAAUGAACAAAGAAAAUCUGGGCCAGGCAGGCAUCAAAGGAAAUAGUCUUGCGCUCAACCAGAAAGUCUGUAAUCAUUUUAAGGGUA [U49C A92G]: the self-cleavage worked out at 1.47.
Under GUUAACGGUCAUAGGCCAUGGAAACUAGGAGCACCAUUUCGCUGCCAGUGAAGAAAUGAACAAAGAAAAUCUGGGCCAGGCAGGCAUCAAAAGAAAUAGUCUUUCGCUCAACCUGAAAGUCUGUAAUCAUUUUAAGGGUA [G104U A114U] stands 0.02; under GUUAACGGUCAUAGGCCAUGGAAACUAGGAGCACCAUUUCGCUGCCGGUGAAGAAAUGAACAAAGAAAAUCUGGGCCAGGCAGGCAUCAAAAGAAAUAGUCUUGCGCUCAUCCAGAAAGUCUGUAAUCAUUUUAAGGGUA [A47G A111U], 0.12; under GUUACCGGUCAUAGGCCAUGGAAACUAGGAGCACCAUUUCGCUGCCAGUGAAGAAAUGAACAAAGAAAAUCUGGGCCAGGCAGGCAUCAAAAGAAAUGGUCUUGCGCUCAACCAGAAAGUCUGUAAUCAUUUUAAGGGUA [A5C A98G], 0.42.
Under GUUAACGGUCAUAGGCCAUGGAGACUAGGAGCACCAUUUCGCAGCCAGUGAAGAAAUGAACAAAGAAAAUCUGGGCCAGGCAGGCAUCAAAAGAAAUAGUCUUGCGCUCAACCAGAAAGUCUGUAAUCAUUUUAAGGGUA [A23G U43A] stands 0.88.
Regarding GUUAACGGUCAUAGGCCUUGGAAACUAGGAGCACCAUUUCGCUGCCAGUGAAGAAAUGAACAAAGAAAAUCUGGGCCAGGCUGGCAUCAAAAGAAAUAGUCUUGCGCUCAACCAGAAAGUCUGUAAUCAUUUUAAGGGUA [A18U A82U], the self-cleavage came to 0.16.
Under GUUAGCGGUCAUAGGCCAUGGAAACUAGGAGCACCAUUUCGCUGCCAGUGAAGAAAUGAACAAAGAAAAUCUGGGCCAGGCAGGCAUCAAAAGAGAUAGUCUUGCGCUCAACCAGAAAGUCUGUAAUCAUUUUAAGGGUA [A5G A95G] stands 1.27; under GUUAACGGUCAUAGGCCAUGGAAACUAGGAGCACCAUUUCGCUGCCAGUGAAGAAAUAAACAAAGAAAAUCUGGGCCAGGCAGGCAUCAAAAGAAAUAGUCUUGCGCUCAACCAGAAAGUCUGUAAUCAUUUUAAGGGCA [G58A U139C], 0.57; under GCUAACGGUCAUAGGCCAUGGAAACUAGGAGCACCAUUUCGCUGCCAGUGAAGAAAUGAACAAAGAGAAUCUGGGCCAGGCAGGCAUCAAAAGAAAUAGUCUUGCGCUCAACCAGAAAGUCUGUAAUCAUUUUAAGGGUA [U2C A67G], 1.13.
In the case of GUUAACUGUCAUAGGCCAUGGAGACUAGGAGCACCAUUUCGCUGCCAGUGAAGAAAUGAACAAAGAAAAUCUGGGCCAGGCAGGCAUCAAAAGAAAUAGUCUUGCGCUCAACCAGAAAGUCUGUAAUCAUUUUAAGGGUA [G7U A23G] it was 1.04; in that of GUUAACGGUCAUAGGCCAUGGAAACUAGGAGCACCAUUUCGCUGCCAGUGAAGAAAGGAACAAAGAAAAUCUGGGCCAGGCAGGCAUCAAAAGAAAUAGUCUUGCGCUCAACCAGAGAGUCUGUAAUCAUUUUAAGGGUA [U57G A117G], 2.08.
As to GUUAAUGGUCAUAGGCCAUGGAAACUAGGAGCACCAUUUCGCUGCCAGUGAAGAAAUGAACAAAGAGAAUCUGGGCCAGGCAGGCAUCAAAAGAAAUAGUCUUGCGCUCAACCAGAAAGUCUGUAAUCAUUUUAAGGGUA [C6U A67G], the self-cleavage came out at 1.39.
